Experimental data reported in patent US20210047373A1, “BETA BARREL POLYPEPTIDES AND METHODS FOR THEIR USE” (UNIVERSITY OF WASHINGTON, priority 2018, published 2021).
Entries after “also recorded” stand apart in the source; their conditions may differ.

Assays:
[1] = parameters: species or system E. coli
Source text: (§1) The sequences of these designs are not related to those of proteins with known structure (BLAST E-values ranged from 0.11 to 1.9 against the non-redundant protein database) and fold into the designed structure in silico (FIG. 2A). Synthetic genes encoding the designs were expressed in E. coli. […] The crystal structure of BB1 solved at 1.6 Å resolution was very close to the design model (within 1.4 Å RMSD over 99 residues of the 109 residues, FIG. 2F-G, deviations from the design are shown in FIG. 10) and had no close structural homolog in the PDB (highest TM-score <0.8). Essentially all of the key features of the design model are found in the crystal structure. The cross-section of the structure resembles the square cavity of the design model, which is not observed in any existing natural β-barrel crystal structures (FIG. 21), and is shaped by the designed glycine kinks. All 7 designed turns and β-bulges are correctly recapitulated in the crystal structure (FIG. 2H,J), along with the 3-10 helix and tryptophan corner (FIG. 2K).
(§2) Protein expression and purification. Genes encoding the nonfunctional β-barrel designs (41 from parametric design and 4 from fragment-base design) were synthesized and cloned into the pET-29 vector (GenScript, Inc). Plasmids were then transformed into BL21*(DE3) E. coli strain (NEB, Inc). […]

[2] = Size-exclusion chromatography (SEC, SEC-MALS); type: physicochemical; conditions: oligomeric state
Source text: as §1, §2

[3] = Circular dichroism, thermal and GuHCl denaturation; type: physicochemical
Description: Circular dichroism (CD). Purified protein samples were prepared at 0.5 mg/ml in 20 mM Tris buffer (150 mM NaCl, pH8.0) or PBS buffer (25 mM phosphate, 150 mM NaCl, pH7.4). Wavelength scans from 195 nm to 260 nm were recorded at 25 degrees Celsius, 75 degrees Celsius, 95 degrees Celsius and cooling back to 25 degrees Celsius. Thermal denaturation was monitored at 220 nm or 226 nm from 25 degrees Celsius to 95 degrees Celsius. Near-UV wavelength scan from 240 nm to 320 nm and tryptophan fluorescence emission were recorded in the absence and presence of 5M guanidinium chloride (GuHCl). Chemical denaturation in GuHCl was monitored by both tryptophan fluorescence and near-UV CD signal at 285 nm. The concentration of the GuHCl stock solution was measured with a refractometer (Spectronic Instruments, Inc). Far-UV CD experiments were performed on an AVIV model 420 CD spectrometer (Aviv Biomedical, Inc). Near-UV CD and tryptophan fluorescence experiments were performed on a Jasco J-1500 CD spectrometer (Jasco, Inc). Protein concentrations were determined by 280 nm absorbance with a NanoDrop™spectrophotometer (ThermoScientific, Inc). Melting temperatures were estimated by smoothing the sparse data with a Savitsky-Golay filter of order 3 and approximating the smoothed data with a cubic spline to compute derivatives. Reported Tm values are the inflection points of the melting curves.

B1: BB1: SEQ ID NO 1; nonfunctional de novo β-barrel design, stable monomer (protein)
chain: MVDAAQYFPGTWEFRFRSSDGKEYRGTVEMQPRTPTEIEIRFKGQSSDGRPVEGRGSIEVRSPYEYRFEMQSSDGARWEGTLQVRSPDSVEVRFKSSDGREYSGEFRRQE
modifications: (1)..(1) optionally absent
For B1, the Solubility [1] was “yes”, the SEC [2] was “monomer” and the “β CD spectrum” value [3] was “yes”. The Thermal stability ([3]; CD) was “unchanged at 95 °C; also recorded: stable at 95 degree Celsius; also recorded: does not temperature denature” and the “Cooperative unfolding transition in guanidine” value ([3]; near UV CD signal and tryptophan fluorescence) was 2.5 M.
